Each block holds one sequence with its values, some of them ahead of it.
Experiments:
[1] = molecular target: HLA-B*40:01; experiment: IEDB peptide-MHC binding, purified MHC/direct/fluorescence; filed as Kd, often an IC50 or EC50 that approximates it; ≥ and ≤ were set here for values at or beyond the usual limits of such assays; details: source organism: Influenza A virus (A/Moscow/343/2003(H3N2))
[2] = molecular target: HLA-A*02:01; experiment: IEDB peptide-MHC binding, purified MHC/competitive/fluorescence; filed as Kd, often an IC50 or EC50 that approximates it; ≥ and ≤ were set here for values at or beyond the usual limits of such assays
[3] = molecular target: HLA-A*02:01; experiment: IEDB peptide-MHC binding, purified MHC/competitive/fluorescence; ≥ and ≤ were set here for values at or beyond the usual limits of such assays
[4] = molecular target: HLA-A*02:01; experiment: IEDB peptide-MHC binding, purified MHC/direct/fluorescence; filed as Kd, often an IC50 or EC50 that approximates it; ≥ and ≤ were set here for values at or beyond the usual limits of such assays
[5] = molecular target: HLA-A*02:03; experiment: IEDB peptide-MHC binding, purified MHC/competitive/radioactivity; filed as Kd, often an IC50 or EC50 that approximates it; ≥ and ≤ were set here for values at or beyond the usual limits of such assays
[6] = molecular target: HLA-A*02:06; experiment: as above
[7] = molecular target: HLA-A*02:02; experiment: as above
[8] = molecular target: HLA-A*11:01; experiment: as above; details: source organism: Dengue virus 3 Martinique/1243/1999
[9] = molecular target: HLA-A*01:01; experiment: as above
[10] = molecular target: HLA-A*03:01; experiment: as above; details: source organism: Dengue virus 3 Martinique/1243/1999
[11] = molecular target: HLA-B*15:01; experiment: IEDB peptide-MHC binding, purified MHC/direct/fluorescence; filed as Kd, often an IC50 or EC50 that approximates it; ≥ and ≤ were set here for values at or beyond the usual limits of such assays
[12] = molecular target: HLA-B*27:05; experiment: as above; details: source organism: Homo sapiens
[13] = molecular target: HLA-A*11:01; experiment: as above; details: source organism: Homo sapiens
[14] = molecular target: HLA-A*03:01; experiment: as above
[15] = molecular target: HLA-A*69:01; experiment: as above
[16] = molecular target: HLA-B*58:01; experiment: as above
[17] = molecular target: HLA-A*30:02; experiment: IEDB peptide-MHC binding, purified MHC/competitive/radioactivity; filed as Kd, often an IC50 or EC50 that approximates it; ≥ and ≤ were set here for values at or beyond the usual limits of such assays
[18] = molecular target: HLA-A*24:02; experiment: as above
[19] = molecular target: HLA-B*07:02; experiment: IEDB peptide-MHC binding, purified MHC/direct/fluorescence; filed as Kd, often an IC50 or EC50 that approximates it; ≥ and ≤ were set here for values at or beyond the usual limits of such assays
[20] = molecular target: HLA-A*01:01; experiment: as above; details: source organism: West Nile virus
[21] = source organism: Mycobacterium tuberculosis
[22] = source organism: Mammarenavirus juninense
[23] = source organism: Zaire ebolavirus
[24] = source organism: Marburg virus - Musoke, Kenya, 1980
[25] = source organism: Dengue virus 2 Jamaica/1409/1983
[26] = source organism: Sudan ebolavirus
[27] = source organism: Dengue virus 1 Brazil/97-11/1997
[28] = source organism: Yersinia pestis
[29] = source organism: Vaccinia virus WR
[30] = source organism: Lassa virus Josiah

Sequence: AEDMGNGCF
Kd [1]: 0.166 µM

Sequence: ALFGIKLPAL
Kd ([2]; source organism: Vaccinia virus Copenhagen): 0.0003 µM

Sequence: ALVREGLRNV
IC50 [3, 21]: 0.13 µM

Sequence: AMPGVLSYV
Kd [4, 22]: 0.0036 µM | Kd [5, 22]: 0.00729 µM | Kd [6, 22]: 0.0218 µM | Kd [7, 22]: 0.00422 µM

Sequence: CTNTFVLKK
Kd [8]: 0.0778 µM | Kd ([9]; source organism: Dengue virus 3 Martinique/1243/1999): 5.09 µM | Kd [10]: 0.00971 µM

Sequence: DDQEKKILM
IC50 [3, 23]: ≥ 1720 µM

Kd ([2]; source organism: Homo sapiens): 2 µM
Sequence: DLKPQNILL

Sequence: DVDKLVCRD
IC50 [3, 23]: 51.9 µM

Kd ([11]; source organism: Homo sapiens): 13.5 µM
Sequence: EADPTGHSY

Kd [12]: 1.69 µM | Kd [13]: 9.4 µM | Kd ([14]; source organism: Homo sapiens): 10.4 µM
Sequence: ERLQICQRK

Sequence: FLYDRIAST
Kd [4, 24]: 0.005 µM | Kd [15, 24]: 1.84 µM

Sequence: FTNMEAQLI
Kd [9, 25]: 2.16 µM

Sequence: FVRLDRPHT
IC50 [3, 26]: ≥ 101 µM

Sequence: HTQTAGPWHL
Kd [9, 25]: ≥ 70.4 µM

Sequence: IAGFIENGW
Kd ([16]; source organism: Influenza A virus (A/Sichuan/2/1987(H3N2))): 0.144 µM

Sequence: IFISANNQW
Kd ([16]; source organism: Vibrio vulnificus): 0.0228 µM

Sequence: IGKMLESTY
Kd ([17]; source organism: Dengue virus 4 Philippines/H241/1956): 0.0185 µM

Sequence: ITNTIAGVA
IC50 [3, 23]: 19.9 µM

Sequence: IWGRKSWPL
Kd [18, 27]: 0.0933 µM

Sequence: KAFSMPLGV
IC50 [3, 26]: 9.08 µM

IC50 ([3]; source organism: Homo sapiens): 6.5 µM
Sequence: KLSDGVAVL

Sequence: KNEHKSTWHY
Kd [17, 27]: 0.45 µM

Sequence: LFSGVSWIM
Kd ([18]; source organism: Dengue virus 3 Singapore/8120/1995): 0.141 µM

Sequence: LLAALFHDI
Kd [4, 28]: 0.085 µM | Kd [16, 28]: 1.94 µM | Kd [15, 28]: 1.94 µM | Kd [11, 28]: 2.48 µM

Sequence: LLHDIGKPV
Kd [19, 21]: 11.5 µM | Kd [15, 21]: ≥ 20 µM

Sequence: LLLGGTSEI
Kd [15, 21]: 0.846 µM

Kd ([2]; source organism: Escherichia coli O139:H28 str. E24377A): 0.147 µM
Sequence: LLPFGQLSI

Sequence: LLVNEFYI
Kd [2, 29]: 0.0587 µM

Kd ([14]; source organism: Escherichia coli): ≥ 20 µM
Sequence: LPYTFMLRK

Sequence: LQLNETIYT
IC50 [3, 23]: 2.7 µM

Sequence: MTRGILGSY
Kd [20]: 7 µM

Sequence: NITTAVKTV
IC50 [3, 26]: 22.8 µM

Sequence: NSTSTWVTY
Kd [17, 25]: 1.73 µM | Kd [9, 25]: 7.23 µM

Sequence: RGDLPVWLAY
Kd [17, 25]: 0.00685 µM

Sequence: RMIGGIGRFYI
Kd ([2]; source organism: Influenza A virus (A/swine/Italy/2/1979(H1N1))): 0.0003 µM

Kd ([19]; source organism: Homo sapiens): 0.0453 µM
Sequence: RPVSPGKDI

Sequence: RVFKKIMSI
Kd [5, 29]: 0.00018 µM | Kd [6, 29]: 0.0752 µM | Kd [7, 29]: 0.35 µM

Sequence: RVNDLNRMPT
Kd [5, 29]: 1.44 µM | Kd [6, 29]: 7.72 µM | Kd [7, 29]: 1.36 µM

Sequence: RVNHAKYMVT
Kd [5, 29]: 1.05 µM | Kd [6, 29]: 9.33 µM | Kd [7, 29]: ≥ 33.6 µM

Sequence: SIINHKFCNL
Kd [5, 30]: 0.562 µM | Kd [6, 30]: 1.01 µM | Kd [7, 30]: 0.247 µM

Sequence: SIPISELSRL
Kd [5, 29]: 0.0606 µM | Kd [6, 29]: 0.0782 µM | Kd [7, 29]: 0.252 µM
